The test has as its target protein kinase CK2 catalytic subunit α (human, UniProt P68400 1-391). Description: SEC. (In general: SEC sorts molecules by how far they enter the pores of the column.)

Sequence of protein kinase CK2 catalytic subunit α (P68400 whole entry): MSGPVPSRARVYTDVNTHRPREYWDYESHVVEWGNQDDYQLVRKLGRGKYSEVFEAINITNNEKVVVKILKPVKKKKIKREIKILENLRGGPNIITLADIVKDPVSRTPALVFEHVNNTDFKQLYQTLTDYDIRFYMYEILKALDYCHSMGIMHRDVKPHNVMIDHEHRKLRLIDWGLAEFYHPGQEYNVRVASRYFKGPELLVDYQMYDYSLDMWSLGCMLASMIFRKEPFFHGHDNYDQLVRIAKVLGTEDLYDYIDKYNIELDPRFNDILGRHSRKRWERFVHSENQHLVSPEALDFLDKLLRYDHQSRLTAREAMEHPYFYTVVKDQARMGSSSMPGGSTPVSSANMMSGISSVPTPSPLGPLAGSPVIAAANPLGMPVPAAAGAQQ

B1: protein kinase CK2 non-catalytic subunit β (natural protein)
chain: not shown
Turning to B1, the binding result was “binds”.

The values above are taken from paper PMC3026963 (The Biochemical journal, 2010).
